Reference: patent US20240034787A1 (TOKYO UNIVERSITY OF PHARMACY AND LIFE SCIENCES, published 2024)

Molecular target: T1, LRP1 of rat retinal ganglion cells (rat, UniProt G3V928 20-4545)
T1 construct: Endogenous LRP1 in the rat retina (ganglion cell layer); also called LRP1 on retinal ganglion cells
Assay: fluorescent immunostaining of rat retina sections after intravitreal administration (colocalisation in the ganglion cell layer)
Method: Frozen specimen preparation and immunofluorescence staining of rat eyeballs were performed in the following procedures. [0212] (1) Thinly sliced sections were prepared in the same manner as in the HE staining method. [0213] (2) 15% blocking buffer (in PBS, goat 15% serum, 0.05% Tween 20) was added and reacted at room temperature for one hour. [0214] (3) Washing was performed with PBS for 15 minutes. [0215] (4) A Primary antibody ([…] in 1% blocking buffer) was added and incubated overnight at 4° C. [0216] (5) Washing was performed with PBS for 15 minutes. [0217] (6) A secondary antibody (Alexa Fluor 488-bound goat anti-rabbit IgG (dilution 1:500, Invitrogen)) and Alexa Fluor 594-bound goat anti-human IgG (dilution 1:500, Invitrogen)) were added and reacted at room temperature for one hour. [0218] (7) Washing was performed with PBS containing Heochst33342 (1:2000 dilution) for one minute. [0219] (8) After encapsulation, observation was performed with a fluorescence microscope.
In the above experiment, it was observed by fluorescent immunostaining whether C2-D11 IgG binds to LRP1 of retinal ganglion cells after being administered into the vitreous body of rats. […] On the other hand, it was shown that the anti-OVA antibody was not colocalized.

T1 sequence (G3V928 20-4545 limits assumed): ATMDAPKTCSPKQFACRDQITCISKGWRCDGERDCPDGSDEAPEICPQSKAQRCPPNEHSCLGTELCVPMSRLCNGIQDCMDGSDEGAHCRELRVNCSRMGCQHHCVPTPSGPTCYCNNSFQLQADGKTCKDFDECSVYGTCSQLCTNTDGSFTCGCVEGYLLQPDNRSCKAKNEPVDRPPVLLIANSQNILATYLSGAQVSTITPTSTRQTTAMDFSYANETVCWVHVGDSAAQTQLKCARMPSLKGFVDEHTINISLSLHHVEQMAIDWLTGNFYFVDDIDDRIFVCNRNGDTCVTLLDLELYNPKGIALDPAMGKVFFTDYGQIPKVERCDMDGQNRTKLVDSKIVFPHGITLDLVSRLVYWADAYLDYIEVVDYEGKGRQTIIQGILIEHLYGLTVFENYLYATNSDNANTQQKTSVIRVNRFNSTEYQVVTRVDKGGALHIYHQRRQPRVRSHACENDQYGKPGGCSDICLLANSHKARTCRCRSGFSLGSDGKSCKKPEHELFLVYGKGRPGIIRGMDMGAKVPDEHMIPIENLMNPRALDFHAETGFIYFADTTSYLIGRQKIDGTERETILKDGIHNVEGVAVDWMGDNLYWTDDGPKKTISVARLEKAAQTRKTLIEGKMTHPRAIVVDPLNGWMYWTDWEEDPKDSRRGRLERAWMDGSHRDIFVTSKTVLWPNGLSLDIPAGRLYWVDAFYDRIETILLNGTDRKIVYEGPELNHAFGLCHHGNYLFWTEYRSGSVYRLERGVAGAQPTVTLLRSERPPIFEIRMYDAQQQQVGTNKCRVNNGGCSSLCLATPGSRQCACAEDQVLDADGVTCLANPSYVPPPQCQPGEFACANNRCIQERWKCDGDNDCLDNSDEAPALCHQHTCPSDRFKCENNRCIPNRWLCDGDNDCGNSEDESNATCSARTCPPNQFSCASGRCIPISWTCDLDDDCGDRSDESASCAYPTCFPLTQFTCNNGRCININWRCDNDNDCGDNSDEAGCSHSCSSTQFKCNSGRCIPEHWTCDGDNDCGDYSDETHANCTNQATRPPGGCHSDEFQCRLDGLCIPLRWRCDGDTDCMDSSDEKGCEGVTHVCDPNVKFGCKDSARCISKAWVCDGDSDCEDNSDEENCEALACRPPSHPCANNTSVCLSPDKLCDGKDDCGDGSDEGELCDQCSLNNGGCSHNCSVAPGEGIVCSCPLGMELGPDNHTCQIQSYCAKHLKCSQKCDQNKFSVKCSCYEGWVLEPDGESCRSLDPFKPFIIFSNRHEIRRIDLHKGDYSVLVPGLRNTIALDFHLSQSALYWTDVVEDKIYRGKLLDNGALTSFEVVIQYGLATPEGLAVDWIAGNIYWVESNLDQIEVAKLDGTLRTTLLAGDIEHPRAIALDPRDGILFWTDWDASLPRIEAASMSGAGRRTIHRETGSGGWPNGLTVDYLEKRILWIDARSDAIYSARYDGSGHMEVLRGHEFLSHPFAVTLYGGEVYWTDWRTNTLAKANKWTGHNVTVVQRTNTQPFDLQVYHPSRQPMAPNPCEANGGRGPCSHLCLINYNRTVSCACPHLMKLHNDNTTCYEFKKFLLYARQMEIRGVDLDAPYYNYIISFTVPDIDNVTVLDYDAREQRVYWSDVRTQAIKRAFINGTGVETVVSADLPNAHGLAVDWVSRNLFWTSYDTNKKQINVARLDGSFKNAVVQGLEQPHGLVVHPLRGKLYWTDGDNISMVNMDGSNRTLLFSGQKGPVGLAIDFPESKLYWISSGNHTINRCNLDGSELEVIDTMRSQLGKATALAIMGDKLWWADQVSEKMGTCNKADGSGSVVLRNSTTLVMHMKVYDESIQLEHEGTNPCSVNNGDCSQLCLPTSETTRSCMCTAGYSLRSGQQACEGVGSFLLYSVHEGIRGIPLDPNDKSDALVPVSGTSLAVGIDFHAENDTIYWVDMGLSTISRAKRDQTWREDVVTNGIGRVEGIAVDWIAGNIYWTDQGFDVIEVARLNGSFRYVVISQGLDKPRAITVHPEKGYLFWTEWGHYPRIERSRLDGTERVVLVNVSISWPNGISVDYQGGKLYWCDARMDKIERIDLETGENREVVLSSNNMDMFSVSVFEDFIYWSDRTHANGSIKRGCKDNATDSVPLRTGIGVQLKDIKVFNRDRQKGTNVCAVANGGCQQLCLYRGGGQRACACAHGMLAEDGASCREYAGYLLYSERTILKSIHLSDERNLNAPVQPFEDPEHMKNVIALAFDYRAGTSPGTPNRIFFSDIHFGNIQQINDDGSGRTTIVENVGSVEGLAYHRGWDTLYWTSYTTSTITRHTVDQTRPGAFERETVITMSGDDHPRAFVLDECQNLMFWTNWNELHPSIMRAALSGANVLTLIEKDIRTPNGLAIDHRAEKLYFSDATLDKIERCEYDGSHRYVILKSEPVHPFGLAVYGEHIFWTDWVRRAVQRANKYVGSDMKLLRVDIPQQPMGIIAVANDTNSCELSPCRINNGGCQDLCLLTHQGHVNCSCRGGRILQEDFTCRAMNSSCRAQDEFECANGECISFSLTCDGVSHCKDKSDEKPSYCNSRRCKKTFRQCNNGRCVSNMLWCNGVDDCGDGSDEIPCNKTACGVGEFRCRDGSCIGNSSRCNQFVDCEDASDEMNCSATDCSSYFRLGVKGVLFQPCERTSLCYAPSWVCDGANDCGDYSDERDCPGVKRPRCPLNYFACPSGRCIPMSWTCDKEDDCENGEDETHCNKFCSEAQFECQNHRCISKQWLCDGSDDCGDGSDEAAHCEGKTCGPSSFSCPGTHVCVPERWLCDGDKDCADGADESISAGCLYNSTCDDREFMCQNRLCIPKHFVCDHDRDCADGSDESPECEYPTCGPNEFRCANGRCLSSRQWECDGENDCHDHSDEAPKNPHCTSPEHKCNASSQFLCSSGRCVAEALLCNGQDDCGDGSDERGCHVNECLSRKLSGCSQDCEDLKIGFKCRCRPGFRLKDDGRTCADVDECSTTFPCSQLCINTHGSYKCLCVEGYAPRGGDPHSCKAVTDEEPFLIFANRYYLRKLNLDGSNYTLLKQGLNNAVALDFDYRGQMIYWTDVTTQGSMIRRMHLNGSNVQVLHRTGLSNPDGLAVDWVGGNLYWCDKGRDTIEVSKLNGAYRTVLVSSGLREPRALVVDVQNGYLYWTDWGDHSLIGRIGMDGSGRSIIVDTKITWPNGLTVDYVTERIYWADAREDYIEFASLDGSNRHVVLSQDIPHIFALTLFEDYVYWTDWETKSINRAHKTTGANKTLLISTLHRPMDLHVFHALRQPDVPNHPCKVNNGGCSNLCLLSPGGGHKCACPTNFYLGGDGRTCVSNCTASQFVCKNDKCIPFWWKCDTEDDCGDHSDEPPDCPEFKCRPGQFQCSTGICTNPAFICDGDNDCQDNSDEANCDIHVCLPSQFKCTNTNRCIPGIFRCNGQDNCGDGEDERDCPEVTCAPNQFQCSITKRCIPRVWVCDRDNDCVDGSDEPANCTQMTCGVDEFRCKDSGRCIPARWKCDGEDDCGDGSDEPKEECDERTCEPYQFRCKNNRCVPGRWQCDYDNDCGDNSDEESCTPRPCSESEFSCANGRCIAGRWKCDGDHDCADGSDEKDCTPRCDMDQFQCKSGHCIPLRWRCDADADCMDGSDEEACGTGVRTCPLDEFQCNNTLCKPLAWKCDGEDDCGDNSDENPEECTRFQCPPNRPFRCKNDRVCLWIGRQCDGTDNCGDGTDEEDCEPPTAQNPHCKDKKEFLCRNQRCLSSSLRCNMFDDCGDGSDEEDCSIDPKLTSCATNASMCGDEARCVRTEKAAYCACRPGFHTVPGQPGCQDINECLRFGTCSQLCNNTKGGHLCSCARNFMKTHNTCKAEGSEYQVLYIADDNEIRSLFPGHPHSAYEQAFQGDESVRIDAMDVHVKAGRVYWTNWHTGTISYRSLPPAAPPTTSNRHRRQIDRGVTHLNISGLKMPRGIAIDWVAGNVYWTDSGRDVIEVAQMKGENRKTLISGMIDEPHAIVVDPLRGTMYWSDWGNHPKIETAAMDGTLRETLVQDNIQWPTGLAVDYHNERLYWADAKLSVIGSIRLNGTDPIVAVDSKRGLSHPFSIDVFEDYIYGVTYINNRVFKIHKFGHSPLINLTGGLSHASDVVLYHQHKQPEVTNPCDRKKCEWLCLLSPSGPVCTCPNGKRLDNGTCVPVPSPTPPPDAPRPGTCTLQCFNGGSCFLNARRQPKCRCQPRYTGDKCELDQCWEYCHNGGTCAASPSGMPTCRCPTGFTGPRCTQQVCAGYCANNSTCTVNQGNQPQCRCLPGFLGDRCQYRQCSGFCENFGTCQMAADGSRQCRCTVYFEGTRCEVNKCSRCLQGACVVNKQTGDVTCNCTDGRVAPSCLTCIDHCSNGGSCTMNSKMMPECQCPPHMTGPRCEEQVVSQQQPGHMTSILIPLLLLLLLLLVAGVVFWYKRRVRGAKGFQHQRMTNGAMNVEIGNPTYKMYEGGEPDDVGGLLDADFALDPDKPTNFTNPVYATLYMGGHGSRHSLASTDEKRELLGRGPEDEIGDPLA

- binding result: binds
B1: anti-LRP1 human IgG1 antibody prepared from C2_D11 (antibody, V domains shown)
VH: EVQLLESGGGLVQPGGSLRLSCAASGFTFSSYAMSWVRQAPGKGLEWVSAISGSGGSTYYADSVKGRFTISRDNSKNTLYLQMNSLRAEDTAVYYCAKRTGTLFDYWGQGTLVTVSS
VL: SSELTQDPAVSVALGQTVRITCQGDSLRSYYASWYQQKPGQAPVLVIYGKNNRPSGIPDRFSGSSSGNTASLTITGAQAEDEADYYCNSSQAQRNAVVFGGGTKLTVLG
notes: VH and VL of C2_D11 were put into expression vectors with a human IgG1 Fc region and expressed in HEK-293; also called C2-D11 IgG; human C2-D11 IgG
